For assay [1], the target named is HLA-A0201 on T2 cells without added peptide (human). In words: flow cytometry: BB7 staining of T2 cells without peptide.
Assay [2] deals with Ras10-WT peptide/HLA-A0201 complex on peptide-pulsed T2 cells (human).
The target of assay [3] is Ras10-G12V peptide/HLA-A0201 complex on peptide-pulsed T2 cells (human).
The target in assay [4] is CD3 on purified human T cells (human) (UniProt P07766). Kind of assay: flow cytometry of purified human CD3 T cells, BiTE at 1 ug/ml then FITC secondary; secondary alone (GA6His_F 1;100) 8.13, unstained 8.13. On the technique in general: Flow cytometry measures light scatter and fluorescence of single cells or particles in a stream.
Assay [5] has the same target. In words: flow cytometry of purified human CD3 T cells, BiTE at 1 ug/ml then FITC secondary; same sample file as in FIGURE 5B.
For assay [6] the target is unchanged. In words: flow cytometry of purified human CD3 T cells, BiTE at 0.1 ug/ml then FITC secondary; secondary alone (GA6His_F 1;100) 8.13, unstained 8.13.
Assay [7] shares this target. In words: flow cytometry of purified human CD3 T cells, BiTE at 0.1 ug/ml then FITC secondary; same sample file as in FIGURE 5B.
The target is the same in assay [8]. In words: flow cytometry of purified human CD3 T cells, BiTE at 10 ug/ml then FITC secondary; secondary alone (GA6His_F 1;100) 8.13, unstained 8.13.
Assay [9] shares this target. Kind of assay: flow cytometry of purified human CD3 T cells, BiTE at 10 ug/ml then FITC secondary; same sample file as in FIGURE 5B.

Several values for one entry are separate records, joined by “and”; a condition that tells them apart may be missing. Identical values can stand only once.

Sequence of CD3 on purified human T cells (human) (P07766 23-207): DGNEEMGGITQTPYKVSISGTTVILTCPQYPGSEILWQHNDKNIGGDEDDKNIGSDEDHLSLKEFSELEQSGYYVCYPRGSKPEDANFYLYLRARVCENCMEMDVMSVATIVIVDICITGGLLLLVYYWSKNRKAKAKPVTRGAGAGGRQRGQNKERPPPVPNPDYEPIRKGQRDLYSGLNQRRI

The substance BB7 (antibody) showed a Median:FL1-H in assay [1] of 316.

For “isotype control BiTE (bispecific antibody)”, the Median:FL1-H in assay [2] was 10.7 and 11.2; in assay [3], 11.2 and 11.4; in [4] it was 229; in assay [5], 229; in [6] it was 39.6; in [7], 39.6. Moreover, the Median:FL1-H in assay [8] and in assay [9] was 604 each time.

Source of the values: US20180134804A1.
